Values belong to the sequence of their own block, whether it stands above or below them.
Experiments:
HLA-A*29:02 [1] = experiment: IEDB peptide-MHC binding, purified MHC/competitive/fluorescence; filed as Kd, often an IC50 or EC50 that approximates it; ≥ and ≤ were set here for values at or beyond the usual limits of such assays
HLA-B*46:01 [2] = experiment: as above
HLA-A*02:12 = experiment: as above
HLA-A*03:01 [3] = experiment: as above
HLA-B*27:03 = experiment: as above
HLA-A*26:01 = experiment: as above
HLA-A*69:01 [4] = experiment: as above; settings: source organism: Pseudomonas aeruginosa PACS2
HLA-B*51:01 = experiment: as above
HLA-A*02:01 [5] = experiment: as above
HLA-B*57:01 [6] = experiment: as above
HLA-B*18:01 [7] = experiment: as above
HLA-B*39:01 = experiment: as above
HLA-B*15:01 [8] = experiment: as above
HLA-A*02:11 = experiment: as above; settings: source organism: Coxiella burnetii 'MSU Goat Q177'
HLA-B*15:01 [9] = experiment: IEDB peptide-MHC binding, purified MHC/direct/fluorescence; filed as Kd, often an IC50 or EC50 that approximates it; ≥ and ≤ were set here for values at or beyond the usual limits of such assays
HLA-B*46:01 [10] = experiment: as above
HLA-A*03:01 [11] = experiment: as above
HLA-B*40:01 = experiment: as above
HLA-B*27:05 = experiment: as above
HLA-A*31:01 = experiment: as above
HLA-A*29:02 [12] = experiment: as above
HLA-B*58:01 [13] = experiment: as above
HLA-A*69:01 [14] = experiment: as above
HLA-A*01:01 = experiment: as above
HLA-A*11:01 [15] = experiment: as above
HLA-B*44:02 = experiment: as above
HLA-A*02:01 [16] = experiment: as above
HLA-B*57:01 [17] = experiment: as above
HLA-B*18:01 [18] = experiment: as above
HLA-B*08:02 = experiment: as above
HLA-B*15:01 [19] = experiment: IEDB peptide-MHC binding, purified MHC/competitive/fluorescence; ≥ and ≤ were set here for values at or beyond the usual limits of such assays
HLA-A*02:01 [20] = experiment: as above
HLA-A*11:01 [21] = experiment: as above
HLA-A*03:01 [22] = experiment: as above
HLA-B*58:01 [23] = experiment: IEDB peptide-MHC binding, purified MHC/competitive/fluorescence; filed as Kd, often an IC50 or EC50 that approximates it; ≥ and ≤ were set here for values at or beyond the usual limits of such assays
HLA-A*24:02 = experiment: IEDB peptide-MHC binding, purified MHC/competitive/fluorescence; ≥ and ≤ were set here for values at or beyond the usual limits of such assays
HLA-A*68:02 = experiment: IEDB peptide-MHC binding, purified MHC/competitive/fluorescence; filed as Kd, often an IC50 or EC50 that approximates it; ≥ and ≤ were set here for values at or beyond the usual limits of such assays
HLA-B*48:01 = experiment: IEDB peptide-MHC binding, purified MHC/direct/fluorescence; filed as Kd, often an IC50 or EC50 that approximates it; ≥ and ≤ were set here for values at or beyond the usual limits of such assays; settings: source organism: West Nile virus
HLA-B*08:01 = experiment: as above; settings: source organism: West Nile virus
HLA-B*07:02 = experiment: as above; settings: source organism: West Nile virus
[24] = source organism: Pseudomonas aeruginosa PACS2
[25] = source organism: Coxiella burnetii 'MSU Goat Q177'
[26] = source organism: Yellow fever virus
[27] = source organism: Zaire ebolavirus
[28] = source organism: Vaccinia virus WR
[29] = source organism: Yersinia pestis Antiqua
[30] = source organism: Sudan ebolavirus
[31] = source organism: Vaccinia virus
[32] = source organism: West Nile virus
[33] = source organism: Shigella flexneri 5 str. 8401

Sequence: GMIAGWHGY
Kd (HLA-A*29:02 [1]; source organism: Influenza B virus (B/Victoria/2/1987)): 1.6 nM

Kd (HLA-B*46:01 [2]; [24]): ≥ 20 µM
Kd (HLA-A*02:12; [24]): 10.9 nM
Kd (HLA-A*03:01 [3]; [24]): ≥ 20 µM
Kd (HLA-B*27:03; [24]): ≥ 20 µM
Kd (HLA-A*26:01; [24]): ≥ 20 µM
Kd (HLA-A*29:02 [1]; [24]): ≥ 20000 nM
Kd (HLA-A*69:01 [4]): ≥ 20 µM
Kd (HLA-B*51:01; [24]): ≥ 20 µM
Kd (HLA-A*02:01 [5]; [24]): 8.6 nM
Kd (HLA-B*57:01 [6]; [24]): ≥ 20 µM
Kd (HLA-B*18:01 [7]; [24]): ≥ 20 µM
Kd (HLA-B*39:01; [24]): ≥ 20 µM
Sequence: KLIDVSKCI

Sequence: YYLIKYLHV
Kd (HLA-B*15:01 [8]; [25]): ≥ 20000 nM
Kd (HLA-B*46:01 [2]; [25]): ≥ 20 µM
Kd (HLA-A*02:12; [25]): 1170 nM
Kd (HLA-A*03:01 [3]; [25]): ≥ 20 µM
Kd (HLA-A*02:11): 71.5 nM
Kd (HLA-B*27:03; [25]): ≥ 20 µM
Kd (HLA-A*26:01; [25]): ≥ 20 µM
Kd (HLA-B*51:01; [25]): ≥ 20 µM
Kd (HLA-B*57:01 [6]; [25]): ≥ 20 µM
Kd (HLA-B*18:01 [7]; [25]): ≥ 20 µM
Kd (HLA-B*39:01; [25]): ≥ 20 µM

Sequence: GSRAYRNAL
Kd (HLA-B*15:01 [9]; [26]): ≥ 20 µM
Kd (HLA-B*46:01 [10]; [26]): ≥ 20 µM
Kd (HLA-A*03:01 [11]; [26]): ≥ 20 µM
Kd (HLA-B*40:01; [26]): ≥ 20 µM
Kd (HLA-B*27:05; [26]): ≥ 20 µM
Kd (HLA-A*31:01; [26]): ≥ 20 µM
Kd (HLA-A*29:02 [12]; [26]): ≥ 20 µM
Kd (HLA-B*58:01 [13]; [26]): ≥ 20 µM
Kd (HLA-A*69:01 [14]; [26]): ≥ 20 µM
Kd (HLA-A*01:01; [26]): ≥ 20 µM
Kd (HLA-A*11:01 [15]; [26]): ≥ 20 µM
Kd (HLA-B*44:02; [26]): ≥ 20 µM
Kd (HLA-A*02:01 [16]; [26]): ≥ 20 µM
Kd (HLA-B*57:01 [17]; [26]): ≥ 20 µM
Kd (HLA-B*18:01 [18]; [26]): ≥ 20 µM
Kd (HLA-B*08:02; [26]): ≥ 20 µM

Sequence: LSAIALGVA
IC50 (HLA-B*15:01 [19]; [27]): ≥ 140 µM
IC50 (HLA-A*02:01 [20]; [27]): 25.8 µM

Sequence: LNTIQFMHE
IC50 (HLA-A*11:01 [21]; [28]): ≥ 147 µM

Sequence: ETKKNLTRK
IC50 (HLA-A*03:01 [22]; [27]): 49.6 µM
IC50 (HLA-A*11:01 [21]; [27]): 14.1 µM

Sequence: SAYERGLRY
Kd (HLA-A*03:01 [3]; [29]): 0.0535 µM
Kd (HLA-B*58:01 [23]; [29]): ≥ 20 µM

Sequence: RTYTILNRK
IC50 (HLA-A*03:01 [22]; [30]): 1.05 µM
IC50 (HLA-A*11:01 [21]; [30]): 0.163 µM
IC50 (HLA-A*24:02; [30]): 42.2 µM

Sequence: PVYRDHSEK
IC50 (HLA-A*03:01 [22]; [27]): 7.62 µM
IC50 (HLA-A*11:01 [21]; [27]): 7.12 µM

Kd (HLA-A*68:02; source organism: Escherichia coli HS): 809 nM
Sequence: EAIRQIHAQ

Sequence: HILRSQGPF
IC50 (HLA-B*15:01 [19]; [27]): 12.8 µM
IC50 (HLA-A*02:01 [20]; [27]): ≥ 519 µM
IC50 (HLA-A*24:02; [27]): 5.72 µM

Sequence: VVTNSTLEV
IC50 (HLA-B*15:01 [19]; [30]): ≥ 114 µM
IC50 (HLA-A*02:01 [20]; [30]): 7.96 µM

Sequence: RMNSNQVCI
IC50 (HLA-B*15:01 [19]; [31]): 18.1 µM
IC50 (HLA-A*03:01 [22]; [31]): ≥ 118 µM
IC50 (HLA-A*02:01 [20]; [31]): 3.44 µM
IC50 (HLA-A*24:02; [31]): 0.0818 µM

Sequence: RSTKGGQQK
IC50 (HLA-A*03:01 [22]; [27]): 5.63 µM
IC50 (HLA-A*11:01 [21]; [27]): 1.81 µM

Kd (HLA-A*29:02 [1]; source organism: Orientia tsutsugamushi str. Boryong): ≤ 0.1 nM
Sequence: WMNHHAITY

Sequence: GYYSTTIRY
IC50 (HLA-B*15:01 [19]; [27]): 4.56 µM
IC50 (HLA-A*03:01 [22]; [27]): ≥ 300 µM
IC50 (HLA-A*24:02; [27]): 0.831 µM

Sequence: VGKTSQVPK
IC50 (HLA-A*03:01 [22]; source organism: Variola virus): 13.5 µM
IC50 (HLA-A*11:01 [21]; source organism: Variola virus): 1.55 µM

Sequence: MSNGEHVPF
IC50 (HLA-B*15:01 [19]; [28]): 48.7 µM
IC50 (HLA-A*24:02; [28]): 5.46 µM

Sequence: FYMASTWGA
Kd (HLA-A*68:02; source organism: Entamoeba dispar SAW760): 83.1 nM

Sequence: LMNFHQKKN
IC50 (HLA-B*15:01 [19]; [27]): ≥ 265 µM
IC50 (HLA-A*03:01 [22]; [27]): ≥ 334 µM
IC50 (HLA-A*02:01 [20]; [27]): ≥ 123 µM

Sequence: KCRVKMEKL
Kd (HLA-B*15:01 [9]; [32]): ≥ 20 µM
Kd (HLA-B*46:01 [10]; [32]): ≥ 20 µM
Kd (HLA-A*03:01 [11]; [32]): ≥ 20 µM
Kd (HLA-B*48:01): ≥ 20 µM
Kd (HLA-B*40:01; [32]): ≥ 20 µM
Kd (HLA-B*08:01): ≥ 20 µM
Kd (HLA-B*27:05; [32]): ≥ 20 µM
Kd (HLA-A*31:01; [32]): ≥ 20 µM
Kd (HLA-A*29:02 [12]; [32]): ≥ 20 µM
Kd (HLA-B*58:01 [13]; [32]): ≥ 20 µM
Kd (HLA-A*69:01 [14]; [32]): ≥ 20 µM
Kd (HLA-A*01:01; [32]): ≥ 20 µM
Kd (HLA-A*11:01 [15]; [32]): ≥ 20 µM
Kd (HLA-B*44:02; [32]): ≥ 20 µM
Kd (HLA-A*02:01 [16]; [32]): ≥ 20 µM
Kd (HLA-B*57:01 [17]; [32]): ≥ 20 µM
Kd (HLA-B*18:01 [18]; [32]): ≥ 20 µM
Kd (HLA-B*08:02; source organism: West Nile virus strain PTRoxo): ≥ 20 µM
Kd (HLA-B*07:02): ≥ 20 µM

Sequence: HLTPAQLSM
Kd (HLA-B*15:01 [8]; [33]): 1780 nM
Kd (HLA-B*58:01 [23]; [33]): ≥ 5 µM
Kd (HLA-A*02:01 [5]; [33]): 301 nM

Sequence: ATQVEQHHR
IC50 (HLA-A*03:01 [22]; [27]): ≥ 90.8 µM
IC50 (HLA-A*11:01 [21]; [27]): 5.22 µM

— the Immune Epitope Database (IEDB)
